Earlier results as cited in article PMC4194041.

Target: AP180 fragment with two D(L/I)(L/F) motifs (UniProt Q61548)
Experiment: NMR

Sequence of UniProt Q61548 (Q61548 623-680): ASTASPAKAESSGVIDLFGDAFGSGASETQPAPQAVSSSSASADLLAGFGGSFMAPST

Kd: 250 µM
Substance: Clathrin heavy chain TD (from UniProt P11442)
